Tests used:
different cell lines = test: Recognition of different cell lines by the antibodies with the FACSCAN instrument; format: cell-based; conditions: FACSCAN analysis of a panel of tumor lines
Text: The hybridomas secreting antibodies recognizing the resistant tissues, and recognizing neither the tumors from the control batch PBS nor the native A549 cell which was used for establishing the tumor in vivo, are cloned and frozen. The antibodies are then produced in ascite liquid, purified, retested in immunohistochemistry before being tested in vivo on cells expressing a surface structure or antigen recognized by the antibodies (these cells were selected beforehand by FACSCAN analysis of a non-exhaustive panel of tumor lines available for each antibody).
Table 6 below as for it, groups the cells recognized by these antibodies (Recognition of the antibodies selected in histology with the FACSCAN instrument, of different cell lines).

BxPC3 cells = test: Pancreas xenograft model BxPC3; format: in vivo, athymic "Nude" mice; conditions: 1 mg/dose two times a week; results in FIG. 7
Protocol: 10.10^6 BxPC3 cells are grafted on athymic “Nude” mice. Five days after the grafting, the tumors are measurable and the mice are divided into two batches of six mice with tumors of homogenous size. The mice are either treated with PBS (negative control) or with the antibody 2E11 (1 mg/dose), two times a week. Tumor volume tracking is carried out twice a week.
The results are illustrated in FIG. 7.

| Molecule | In vivo model (cells recognized by these antibodies) (different cell lines; clone D10) | In vivo model (cells recognized by these antibodies) (different cell lines) | anti-tumoral activity (tumor volume) (BxPC3 cells) |
| --- | --- | --- | --- |
| 1A6: monoclonal antibody, heavy chain SEQ ID No. 7, light chain SEQ ID No. 8; hybridoma CNCM I-3612; IgM k (antibody, V domains shown, mus musculus, hybridoma CNCM I-3612; IgM k) VH: EVQLQQSGPELVKPGASVKISCKTSGYTFTEYTLHWVKQSHGKSLEWIGGIDPNNGGTSYNQKFKGKATLTVDKSSSTAYMELRSLTSEDSAVYLCARSNSYYFDYWGQGTTLTVSS VL: DIQMTQTTSSLSASLGDSVTISCRARQDIRNFLNWYQQRPDGTVKLLIYYTSRLHSGVPSRFSGSGSGTDYSLTISNLDQEDVATYFCQQGNTLPFTFGSGTKLEIK | LnCap/HT29 |  |  |
| 1A9: monoclonal antibody, heavy chain SEQ ID No. 15, light chain SEQ ID No. 16; hybridoma CNCM I-3613; IgG1 k (antibody, V domains shown, mus musculus, hybridoma CNCM I-3613; IgG1 k) VH: QIQLVQSGPELKKPGETVKISCKASGQTFTNYGMNWVKQAPGKGLKWMGWINTYTGEPTYADDFKGRFAFSLETSASTAYLQINNLKNEDTATYFCARGGYYRYAAYWGQGTLVTVSA VL: DIQMTQSPASLSASVGETVTITCRASGNIHNYLAWYQQKQGKSPQLLVYNAKTLADGVPSRFSGSGSGTQYSLKINSLQPEDFGCYFCQHFWTTPYTFGGGTKLELI |  | HepG2/H69/LnCap |  |
| 2E11: monoclonal antibody, heavy chain SEQ ID No. 23, light chain SEQ ID No. 24; hybridoma CNCM I-3615; IgG1 k (antibody, V domains shown, mus musculus, hybridoma CNCM I-3615; IgG1 k) VH: EVQLQQSGAEVVKPGASVKLSCTASGFNIKDTYMHWVKQRPEQGLEWIGRIDPANGNTKSDPKFQGKAIKTADTSSNTAYLQLSSLTSEDTAVYYCTSGYTNYVWFTYWGQGTLVTVSA VL: DIVMSQSPSSLAVAAGEKVTMSCKASQSLLNSRTRKNYLAWYQQKPGQSPKLLIYWASTRESGVPDRFTGSGSGTDFSLTISSVQAEDLAVYYCKQSYNLYTFGGGTKLEIK |  | HT29/BxPC3/H69 | validate the functional activity |
| 3G7: monoclonal antibody, heavy chain SEQ ID No. 39, light chain SEQ ID No. 40; hybridoma CNCM I-3616; IgM (antibody, V domains shown, mus musculus, hybridoma CNCM I-3616; IgM) VH: QVQLQQSGPELVRPGTSVKISCKASGYTFTNYWLGWVKQRPGHGLEWIGDIFPGGIYTNYNEKIKGEATLTADTSSSTAYLQLSSLTSEDSFVYFCARFDDFDPFFASWGQGTLVTVSA VL: DVLMTQTPLSLPVSLGDQASISCRSSQTIVHSNGNTYLEWYLQKPGQSPKLLIYKVSNRFSGVPDRFSGSGSGTDFTLNISRVEAEDLGIYYCFQSSRVPYTFGGGTKLEIK |  | DU145 |  |
| 3C11: monoclonal antibody, heavy chain SEQ ID No. 31, light chain SEQ ID No. 32; hybridoma CNCM I-3614; IgM k (antibody, V domains shown, mus musculus, hybridoma CNCM I-3614; IgM k) VH: QVQLKESGPGLVAPSQSLSITCTVSGFSLSSYGVHWVRQPPGKGLEWLGVIWVGGTTNFKSALMSRLSISKDNSKSQVFLKMNSLQTDDTAMYYCARERPYGNPLVDWGQGTLVTVSA VL: DIVMTQSHKFMSTSVGDRVSITCKASQDVSTAVAWYQQKPGQSPKLLIYSASYRYTGVPDRFTGSGSGTDFTFTISSVQAEDLAVYYCQQHYSNPRTFGGGTKLEIK |  | Colo205 |  |
